Reference: the supplement of paper PMC9170038

Key:
[1] = test system: MS2 coat protein; assay: apparent KD of MS2 coat protein, switch ON state; designed switch direction (-1 OFF switch, 1 ON switch): -1; higher = weaker reporter binding; settings: FMN input: 0 or 200 uM; Eterna round: R93 (includes R88 designs)
How it was run: (§1)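 SNAP-549-labelled MS2 coat protein was titrated onto designed RNA switches that had been transcribed on-chip from Illumina sequencing clusters. Amounts doubled from 0.7 or 1.5 nM to 3 µM in 100 mM Tris-HCl pH 7.5, 80 mM KCl, 4 mM MgCl2, with constant ligand or without. Apparent KD is the median per design of normalised cluster binding-curve fits.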

[2] = test system: MS2 coat protein; assay: apparent KD of MS2 coat protein, switch OFF state (with FMN for OFF switches, without FMN for ON switches); designed switch direction (-1 OFF switch, 1 ON switch): -1; higher = weaker reporter binding; settings: FMN input: 0 or 200 uM; Eterna round: R93 (includes R88 designs)
How it was run: as §1

Row | Sequence | apparent KD of MS2 coat protein [1] [nM] | apparent KD of MS2 coat protein [2] [nM]
1 | CUCAAGUGAGGAUAUACGAAUAGUAAGUAAGUAUAACAGACGUAGAAGGCACAUGAGGAUCACCCAUGUAAAUA [JR_Exc004_Sub303] | 36.2 | 28
2 | CUCAAGUGAGGAUAUCAGUAGUAAAAAAAUAAAAUUACUACUGAGAAGGCACAUGAGGAUCACCCAUGUGUCUU [EX4 333: Super Stable 33] | 14.1 | 11.1
3 | CUCGUGUCAGGAUAUGGAAGGCCGUUUGAUUAACGAGGGUACUAGAAGGGACAUGAGGAUCACCCAUGUAAAAA [Maonis] | 81.5 | 90.4
4 | CUCUUGUCAGGAUAUCUAAGAAAAGAAAAGAAAGAAAAGAAAGAGAAGGGACAUGAGGAUCACCCAUGUAAGAA [EteRNA is fun!] | 46.3 | 42.4
5 | CUCUUGUCAGGAUAUUGAAGAAAAGAAGAGAAAGAAAAGAACAAGAAGGGACAUGAGGAUCACCCAUGUAAGAA [EteRNA is fun!] | 61.8 | 66.7
6 | CUCUUGUGAGGAUAUUGAAGAAAAGAAGAGAAAGAAAAGAACAAGAAGGCACAUGAGGAUCACCCAUGUAAGAA [EteRNA is fun!] | 37.9 | 44.2
7 | CUUGUGUGAGGAUAUGUAAAAUGAAUAAGCAGUUCUAAAAGGCAGAAGGUACAUGAGGAUCACCCAUGUGAAAA [Inza] | 39.3 | 49.8
8 | GAAAACAGAGGAUAUACAAAAUUGACACGAAAGGUGCAAAAACAUGAGGAUCACCCAUGUAGAAGGCUGAAGAA [Meechl MS2 Ex2 3] | 25.3 | 21.1
9 | GAAAACAGAGGAUAUACAUGAGGAUCACCCAUGUAAAAAUGUAGAAGGCUGAAAGAAAGAAGAAGGAAAGAAAA [Meechl Ex3 R2 m2] | 24.2 | 28.3
10 | GAAAAGCAAGGAUAUACAUGAGGAUCACCCAUGUGGAAUGGCGUGACCGAAAGAAAAGGUAGAAGGUGCACGUG [Ragetia] | 216 | 286
11 | GAAAAGUCAGGAUAUACAGAAAAAAAAACGAAAAAAAAUCUGUAGAAGGGACAUGAGGAUCACCCAUGUAAAAA [Mat - Exclusion 4 - Mayanna - D122] | 51.4 | 37.6
12 | GAAAAGUCAGGAUAUGCAGAAAAAAAAACGAAAAAAAAACUGCAGAAGGGACAUGAGGAUCACCCAUGUUAAAA [Mat - Exclusion 4 - Mayanna - D127] | 41.5 | 31.2
13 | GAAAAGUGAGGAUAUACAUGAGGAUCACCCAUGUGUAUAAAAAAAUACACAAAAGAAAGUAGAAGGCACUAAAG [Mat - Exclusion 3 - Mayanna mod - D110] | 23.1 | 48.7
14 | GAAAAGUGAGGAUAUUCGGAUAGGAAAACGAAAACCUAUCCGAAGAAGGCACAUGAGGAUCACCCAUGUGAAAG [Mat - Exaclusion 4 - Eli mod - D43] | 28 | 30.9
15 | GAAAAUGGAGGAUAUACAUGAGGAUCACCCAUGUGUAAAAAAAAUUACACAAAAGAAAGUAGAAGGCCAUAAAA [Mat - Exclusion 3 - Mayanna mod - D107] | 66.4 | 174
16 | GAAAGGUCAGGAUAUACGUUAUGCUAGUGCUCGUACUAUAAGUAGAAGGGACAUGAGGAUCACCCAUGUGAUAA [Kawasakiqro] | 45.2 | 58.3
17 | GAAGAACAUGAGGAUCACCCAUGUCAGGAUAUGCAGAAGGGAAUAAUAACCUCUGGAAGCAGAAGGGACAAGAA [Ex 1 May 48] | 33.5 | 59.4
18 | GAAGAACAUGAGGAUCACCCAUGUGAGGAUAUACAGAAUGGAAUAAAAUAACAAGAAAGUAGAAGGCACAAGAA [Ex 1 May 39] | 32.1 | 38.4
19 | GAGGAGUCAGGAUAUCGGGAAAGGUUGAGGAAGAGAAGAAGCGAGAAGGGACAUGAGGAUCACCCAUGUAGAAG [Default title] | 46.7 | 40.3
20 | GAGUAAGGAGGAUAUACAUGAGGAUCACCCAUGUAAAAAGGGAAAGUAGAAAAGUAGAGUAGAAGGCCUAUAGA [JR_Exc003_Sub1702] | 70.4 | 58.3

Row | Sequence | apparent KD of MS2 coat protein [1] [nM] | apparent KD of MS2 coat protein [2] [nM]
21 | GAUCAGCUAGGAUAUACAUUAAUCCGAUAUGAGAAGAAAGAACAUGAGGAUCACCCAUGUAGAAGGAGCCAGUA [Ridigeer] | 40.2 | 39.3
22 | GCAUGCGAAGGAUAUACAUGAGGAUCACCCAUGUGAGAGAAAAAAGUGAGAAAGAAAAGUAGAAGGUCGUGUGG [salish99-ex3-94] | 40.7 | 70.9
23 | GCUGUCGAAGGAUAUACAUGAGGAUCACCCAUGUGAGAGAAAAAAGUGAGAAAGAAAAGUAGAAGGUCGGUAGG [salish99-ex3-97] | 29.6 | 35.7
24 | GGAAAACAUGAGGAUCACCCAUGUAAGGAUAUGCAAAAAAAAAAAGGAUAUAGAAGGAGCAGAAGGUACAAAGG [salish99-ex1-29] | 36.2 | 57
25 | GGAAAACAUGAGGAUCACCCAUGUAAGGAUAUGCAAAAAAGGAUAUAGAAGGAAAAAAGCAGAAGGUACAAAGG [salish99-ex1-23] | 27.1 | 69.8
26 | GGAAAGUCAGGAUAUGGAUAAUAAAUACAAAUAGAAACAAACCAGAAGGGACAUGAGGAUCACCCAUGUAAACA [Exclusion 4 Electric] | 35.3 | 22.6
27 | GGAAAGUGAGGAUAUGCAUAACAAACACAAACACAAACAAAGCAGAAGGCACAUGAGGAUCACCCAUGUAAACA [Exclusion 4 Willow] | 23.5 | 22.3
28 | GGUGGCGUAGGAUAUACAUGAGGAUCACCCAUGUGAGAGAAAAAAGUGAGAAAGAAAAGUAGAAGGACGUUACG [salish99-ex3-126] | 40.3 | 147
29 | GGUUGGCGAGGAUAUACAUGAGGAUCACCCAUGUGAGAGAAAAUAGUGAGAAAGAAAAGUAGAAGGCGCUGACG [salish99-ex3-42] | 113 | 235
30 | GGUUGGCGAGGAUAUACAUGAGGAUCACCCAUGUGAGAGGAAAAAGUGAGGAGGAGAAGUAGAAGGCGCUGACG [salish99-ex3-22] | 29.6 | 138
31 | GUAAACCUAGGAUAUACAUGAGGAUCACCCAUGUAAAAAAUAAUAAAAAGAAAAAAAAGUAGAAGGAGGUAGAU [JR_Exc003_Sub1226] | 29.1 | 44
32 | GUAGUGUGAGGAUAUGGAUAGAAGAAGUGAAAGUAAGAGAACUAGAAGGCACAUGAGGAUCACCCAUGUAUGUG [JR_Exc004_Sub1701] | 41.4 | 53.3
33 | GUGUACAGAGGAUAUACGGGAGCUAGGAAACUAGCAACCUCACAUGAGGAUCACCCAUGUAGAAGGCUGUACAC [Ex2: 752] | 159 | 799
34 | UAAAAACAUGAGGAUCACCCAUGUGAGGAUAUGUACGAAAUAAAUAAAAAAUAAAAGUACAGAAGGCACAAAAU [Mat - Exclusion 1 - Eli mod - D6] | 37 | 52.6
35 | UAAAGACAUGAGGAUCACCCAUGUGAGGAUAUAGGUGUAUGCAAAAAAAAGUUAAAAACUAGAAGGCACAGAAA [JR_Exc001_Sub305] | 66 | 42.5
36 | UAAAGACAUGAGGAUCACCCAUGUGAGGAUAUCGGAGAUGACGGAACAUCGAGUUCGGCGAGAAGGCGCAGGAA [JR_Exc001_Sub407] | 30.1 | 29.2
37 | UACAGACAUGAGGAUCACCCAUGUGAGGAUAUUCAUAACGAUAUUACAAGUAUGACAGGAAGAAGGCACAGCAA [JR_Exc001_Sub010] | 45 | 47.5
38 | UAUAACGAAGGAUAUACUAACGAAACUAAUGCAUAUAUAUAACAUGAGGAUCACCCAUGUAGAAGGUCGAGAAU [JR_Exc002_Sub011] | 23.7 | 28.8
39 | UAUAGACAUGAGGAUCACCCAUGUGAGGAUAUCGGUGACUACAGGACAUCACGUACAAUGAGAAGGCACAGAAA [JR_Exc001_Sub017] | 40.3 | 44.2
40 | UAUGAGCGAGGAUAUGCUUGGGACUGUCGGAAGGUGGCGGGACAUGAGGAUCACCCAUGUAGAAGGCGCGAGCG [Harteesian Tree] | 59.8 | 67.4
